Biological target: KCNQ1 H363C in the cysteine-less background (human) (UniProt P51787)

time constant of oxidant (0.1% H2O2)-induced current reduction, H363C with D76C: 50 s
Substance: KCNE1 D76C in the cysteine-less, HA-tagged background (from UniProt P15382 1-129) (natural protein)

— paper PMC2888057
